1 molecule from US20110124571A1 (INSTITUT PASTEUR, published 2011) can be followed below.

The target of this experiment is Recombinant human NEP (neutral endopeptidase, EC 3.4.24.11), devoid of its N-terminal cytosol and … (human, UniProt P08473 52-750). The experiment is described as follows: cell-based or functional assay.
Recombinant human NEP (neutral endopeptidase, EC 3.4.24.11), devoid of its N-terminal cytosol and …, sequence (P08473 52-750): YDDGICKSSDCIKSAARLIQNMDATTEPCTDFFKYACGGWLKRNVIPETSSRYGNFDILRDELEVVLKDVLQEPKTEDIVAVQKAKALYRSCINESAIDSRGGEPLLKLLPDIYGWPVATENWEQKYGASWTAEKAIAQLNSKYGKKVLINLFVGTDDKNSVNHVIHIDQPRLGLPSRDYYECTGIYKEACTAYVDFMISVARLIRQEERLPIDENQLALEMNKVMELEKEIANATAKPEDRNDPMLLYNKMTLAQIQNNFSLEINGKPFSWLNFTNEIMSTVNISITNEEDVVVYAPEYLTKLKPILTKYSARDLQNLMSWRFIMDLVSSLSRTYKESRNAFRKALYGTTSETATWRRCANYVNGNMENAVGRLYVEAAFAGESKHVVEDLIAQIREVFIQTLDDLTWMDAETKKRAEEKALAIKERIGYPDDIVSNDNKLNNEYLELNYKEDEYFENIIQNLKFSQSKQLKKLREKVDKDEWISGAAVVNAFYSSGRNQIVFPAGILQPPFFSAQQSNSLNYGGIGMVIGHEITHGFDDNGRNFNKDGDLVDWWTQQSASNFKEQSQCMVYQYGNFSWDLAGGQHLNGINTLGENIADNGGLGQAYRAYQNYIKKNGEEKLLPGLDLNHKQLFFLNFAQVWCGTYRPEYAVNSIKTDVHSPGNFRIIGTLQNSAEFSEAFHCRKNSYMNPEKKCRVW

As to CQRFSR (spacer -HN-(CH2)6-CO- (amino-hexanoic-acid) between Cys and Gln) [NH2-C-(C6-polyethylene)QRFSR-COOH], the “IC50, inhibition of Abz-dR-G-L-EDDnp cleavage by rhNEP (endopeptidase activity)” value was 40 µM.
